This is an account of results in publication PMC12905440, “Biochemical principles of miRNA targeting in flies”.

Series [1] addresses T1, FLAG-Ago1 (RISC) (Drosophila melanogaster, UniProt A1Z9J5 1-950). Put plainly: RNA Bind-n-Seq (filter binding, sequencing, MLE); miR-11 guide; 20 mM HEPES-KOH pH 7.9, 100 mM potassium acetate, 3.5 mM magnesium acetate, 0.05% CHAPS, 2 mM DTT, 8% glycerol, 0.05 ug/ul BSA, 0.01 mg/ml yeast tRNA, 100 nM RNA library, 25 C, 2 h. Particulars: protein: recombinant; tags: FLAG.
Series [2] addresses T2, Ago1 (RISC, embryo lysate) (Drosophila w[*]; AGO2[414] embryos, 0-8 …, UniProt A1Z9J5 1-950). Briefly: competition; let-7 guide; RBNS: 20 mM HEPES-KOH pH 7.9, 100 mM KOAc, 3.5 mM Mg(OAc)2, 0.05% CHAPS, 2 mM DTT, 8% glycerol, BSA, tRNA, 25 C, 2 h; filter binding: 25 mM HEPES-KOH pH 7.9, 110 mM KOAc, 3.5 mM Mg(OAc)2, 2 mM DTT, 25 C; competition: 18 mM HEPES-KOH pH 7.4, 100 mM KOAc, 3 mM Mg(OAc)2, 5 mM DTT, 25 C. Particulars: protein: native; g2-21 paired, G:U at g4 and g5.

The target of series [3] is T1, FLAG-Ago1 (RISC). Briefly: RNA Bind-n-Seq (filter binding, sequencing, MLE); let-7 guide; 20 mM HEPES-KOH pH 7.9, 100 mM potassium acetate, 3.5 mM magnesium acetate, 0.05% CHAPS, 2 mM DTT, 8% glycerol, 0.05 ug/ul BSA, 0.01 mg/ml yeast tRNA, 100 nM RNA library, 25 C, 2 h. Particulars: protein: recombinant; tags: FLAG; t2-t8 plus t1A.
For series [4], the target named is T2, Ago1 (RISC, embryo lysate). Put plainly: competition; let-7 guide; nearly same affinity as fully complementary; RBNS: 20 mM HEPES-KOH pH 7.9, 100 mM KOAc, 3.5 mM Mg(OAc)2, 0.05% CHAPS, 2 mM DTT, 8% glycerol, BSA, tRNA, 25 C, 2 h; filter binding: 25 mM HEPES-KOH pH 7.9, 110 mM KOAc, 3.5 mM Mg(OAc)2, 2 mM DTT, 25 C; competition: 18 mM HEPES-KOH pH 7.4, 100 mM KOAc, 3 mM Mg(OAc)2, 5 mM DTT, 25 C. The following applies: protein: native; g2-21 paired, G:U at g4.

Series [5] addresses T2, Ago1 (RISC, embryo lysate). Briefly: competition; let-7 guide; reference; RBNS: 20 mM HEPES-KOH pH 7.9, 100 mM KOAc, 3.5 mM Mg(OAc)2, 0.05% CHAPS, 2 mM DTT, 8% glycerol, BSA, tRNA, 25 C, 2 h; filter binding: 25 mM HEPES-KOH pH 7.9, 110 mM KOAc, 3.5 mM Mg(OAc)2, 2 mM DTT, 25 C; competition: 18 mM HEPES-KOH pH 7.4, 100 mM KOAc, 3 mM Mg(OAc)2, 5 mM DTT, 25 C. The following applies: protein: native; g2-21 paired.

T1 sequence (A1Z9J5 entry or part of it): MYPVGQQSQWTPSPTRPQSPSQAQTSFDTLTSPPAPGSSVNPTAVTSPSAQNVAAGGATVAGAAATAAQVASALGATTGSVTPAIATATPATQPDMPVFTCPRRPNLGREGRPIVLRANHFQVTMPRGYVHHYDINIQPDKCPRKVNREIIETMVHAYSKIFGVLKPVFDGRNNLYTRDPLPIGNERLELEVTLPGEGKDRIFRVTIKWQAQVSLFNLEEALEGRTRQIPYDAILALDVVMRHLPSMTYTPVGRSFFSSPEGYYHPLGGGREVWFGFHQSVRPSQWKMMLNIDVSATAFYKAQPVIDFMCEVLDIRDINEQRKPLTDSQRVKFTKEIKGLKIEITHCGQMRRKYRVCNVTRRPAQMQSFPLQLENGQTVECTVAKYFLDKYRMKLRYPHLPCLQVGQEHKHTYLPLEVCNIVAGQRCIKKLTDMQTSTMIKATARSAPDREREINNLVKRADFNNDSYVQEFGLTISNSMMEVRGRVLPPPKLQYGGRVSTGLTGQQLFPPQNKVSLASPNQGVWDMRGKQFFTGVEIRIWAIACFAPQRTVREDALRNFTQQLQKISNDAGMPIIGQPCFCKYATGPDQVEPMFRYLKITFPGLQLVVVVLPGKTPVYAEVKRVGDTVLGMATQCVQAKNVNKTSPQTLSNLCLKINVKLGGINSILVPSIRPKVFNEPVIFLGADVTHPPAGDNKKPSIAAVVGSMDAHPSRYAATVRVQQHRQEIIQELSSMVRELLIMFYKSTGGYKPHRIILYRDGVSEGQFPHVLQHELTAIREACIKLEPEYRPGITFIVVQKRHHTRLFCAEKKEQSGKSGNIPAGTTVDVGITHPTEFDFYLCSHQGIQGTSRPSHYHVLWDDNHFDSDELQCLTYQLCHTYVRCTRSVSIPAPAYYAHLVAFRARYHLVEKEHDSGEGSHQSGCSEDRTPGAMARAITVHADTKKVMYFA
T2 sequence (A1Z9J5 entry or part of it): as above

B1: miR-11 / 6mer (mixed)
RNA 1: UGUGAU
RNA 2: CAUCACAGUCUGAGUUCUUGC
modifications: guide 5' phosphate
Usually Kd stands for a measure of binding affinity in units of concentration. Consider B1, for which the Kd with FLAG-Ago1 (RISC) [1] worked out at 0.388 ± 0.0906 nM.

B2: let-7 guide / g2-21 target, G:U at positions 4-5 (dsRNA)
RNA 1: GAUACUAUACAACCUACUAUUUCAACCU
RNA 2: UGAGGUAGUAGGUUGUAUAGU
modifications: 2'-O-methyl C and U around a phosphorothioate (CmCpsmU) in target
B2: the binding signal in series [2] was found to be 120 fold lower affinity.

B3: let-7 / 8mer (mixed)
RNA 1: CUACCUCA
RNA 2: UGAGGUAGUAGGUUGUAUAGU
modifications: guide 5' phosphate
Consider B3, for which the Kd in the series with FLAG-Ago1 (RISC) [3] was 0.005 ± 0.00169 nM.

B4: let-7 guide / g2-21 target, G:U at position 4 (dsRNA)
RNA 1: GAUACUAUACAACCUACUACUUCAACCU
RNA 2: UGAGGUAGUAGGUUGUAUAGU
modifications: 2'-O-methyl C and U around a phosphorothioate (CmCpsmU) in target
Consider B4, for which the binding result in series [4] is listed as “binds”.

B5: let-7 guide / g2-21 complementary target (dsRNA)
RNA 1: GAUACUAUACAACCUACUACCUCAACCU
RNA 2: UGAGGUAGUAGGUUGUAUAGU
modifications: 2'-O-methyl C and U around a phosphorothioate (CmCpsmU) in target
For the molecule B5, in series [5], the binding result is “binds”.

B6: miR-11 / 6mer-A1 (mixed)
RNA 1: GUGAUA
RNA 2: CAUCACAGUCUGAGUUCUUGC
modifications: guide 5' phosphate
With B6, in the series with FLAG-Ago1 (RISC) [1], the Kd was 0.404 ± 0.0996 nM.
